Test results reported in paper PMC12594183 (2026).

T1: SIRT1 NTD(3HB)-CD (Homo sapiens, UniProt Q96EB6)
T1 chain: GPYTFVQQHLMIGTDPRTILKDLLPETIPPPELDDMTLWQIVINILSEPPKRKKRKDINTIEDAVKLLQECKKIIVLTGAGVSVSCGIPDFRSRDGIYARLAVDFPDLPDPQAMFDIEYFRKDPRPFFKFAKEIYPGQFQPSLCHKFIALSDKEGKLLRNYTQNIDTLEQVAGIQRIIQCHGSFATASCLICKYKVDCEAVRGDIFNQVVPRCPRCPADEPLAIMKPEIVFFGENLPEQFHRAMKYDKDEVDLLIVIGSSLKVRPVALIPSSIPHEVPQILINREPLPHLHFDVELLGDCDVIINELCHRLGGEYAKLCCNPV

T2: SIRT1 NTD(3HB) (Homo sapiens, UniProt Q96EB6)
T2 chain: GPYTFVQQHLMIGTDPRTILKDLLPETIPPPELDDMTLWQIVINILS

T3: SIRT1 CD (Homo sapiens, UniProt Q96EB6)
T3 chain: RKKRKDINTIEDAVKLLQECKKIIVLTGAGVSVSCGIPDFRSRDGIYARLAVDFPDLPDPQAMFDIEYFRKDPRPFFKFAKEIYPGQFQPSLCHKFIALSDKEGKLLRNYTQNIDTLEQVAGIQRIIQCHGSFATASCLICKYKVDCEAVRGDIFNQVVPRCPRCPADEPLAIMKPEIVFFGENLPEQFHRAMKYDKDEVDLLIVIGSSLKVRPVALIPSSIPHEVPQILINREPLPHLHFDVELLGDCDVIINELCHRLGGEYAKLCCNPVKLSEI


Legend:
Assay in all cases: FP
SIRT1 NTD(3HB)-CD = target: T1, SIRT1 NTD(3HB)-CD
SIRT1 NTD(3HB) = target: T2, SIRT1 NTD(3HB)
SIRT1 CD = target: T3, SIRT1 CD

Binder | Kd (SIRT1 NTD(3HB)-CD) | Kd (SIRT1 NTD(3HB)) | Kd (SIRT1 CD)
PPARγ DBD-LBD (protein, Rosiglitazone) AIECRVCGDKASGFHYGVHACEGCKGFFRRTIRLKLIYDRCDLNCRIHKKSRNKCQYCRFQKCLAVGMSHNAIRFGRMPQAEKEKLLAEISSDIDQLNPESADLRALAKHLYDSYIKSFPLTKAKARAILTGKTTDKSPFVIYDMNSLMMGEDKIKFKHITPLQEQSKEVAIRIFQGCQFRSVEAVQEITEYAKSIPGFVNLDLNDQVTLLKYGVHEIIYTMLASLMNKDGVLISEGQGFMTREFLKSLRKPFGDFMEPKFEFAVKFNALELDDSDLAIFIAVIILSGDRPGLLNVKPIEDIQDNLLQALELQLKLNHPESSQLFAKLLQKMTDLRQIVTEHVQLLQVIKKTETDMSLHPLLQEIYKDLY | 690 nM |  | 
PPARγ DBD-LBD (protein) AIECRVCGDKASGFHYGVHACEGCKGFFRRTIRLKLIYDRCDLNCRIHKKSRNKCQYCRFQKCLAVGMSHNAIRFGRMPQAEKEKLLAEISSDIDQLNPESADLRALAKHLYDSYIKSFPLTKAKARAILTGKTTDKSPFVIYDMNSLMMGEDKIKFKHITPLQEQSKEVAIRIFQGCQFRSVEAVQEITEYAKSIPGFVNLDLNDQVTLLKYGVHEIIYTMLASLMNKDGVLISEGQGFMTREFLKSLRKPFGDFMEPKFEFAVKFNALELDDSDLAIFIAVIILSGDRPGLLNVKPIEDIQDNLLQALELQLKLNHPESSQLFAKLLQKMTDLRQIVTEHVQLLQVIKKTETDMSLHPLLQEIYKDLY | 1900 nM |  | 
PPARγ DBD-LBD (protein, NAD+) AIECRVCGDKASGFHYGVHACEGCKGFFRRTIRLKLIYDRCDLNCRIHKKSRNKCQYCRFQKCLAVGMSHNAIRFGRMPQAEKEKLLAEISSDIDQLNPESADLRALAKHLYDSYIKSFPLTKAKARAILTGKTTDKSPFVIYDMNSLMMGEDKIKFKHITPLQEQSKEVAIRIFQGCQFRSVEAVQEITEYAKSIPGFVNLDLNDQVTLLKYGVHEIIYTMLASLMNKDGVLISEGQGFMTREFLKSLRKPFGDFMEPKFEFAVKFNALELDDSDLAIFIAVIILSGDRPGLLNVKPIEDIQDNLLQALELQLKLNHPESSQLFAKLLQKMTDLRQIVTEHVQLLQVIKKTETDMSLHPLLQEIYKDLY | 1670 nM |  | 
PPARγ LBD (protein) PESADLRALAKHLYDSYIKSFPLTKAKARAILTGKTTDKSPFVIYDMNSLMMGEDKIKFKHITPLQEQSKEVAIRIFQGCQFRSVEAVQEITEYAKSIPGFVNLDLNDQVTLLKYGVHEIIYTMLASLMNKDGVLISEGQGFMTREFLKSLRKPFGDFMEPKFEFAVKFNALELDDSDLAIFIAVIILSGDRPGLLNVKPIEDIQDNLLQALELQLKLNHPESSQLFAKLLQKMTDLRQIVTEHVQLLQVIKKTETDMSLHPLLQEIYKDLY | 240 nM | 6550 nM | 1620 nM
PPARγ LBD (protein) PESADLRALAKHLYDSYIKSFPLTKAKARAILTGKTTDKSPFVIYDMNSLMMGEDKIKFKHITPLDEQSKEVAIRIFQGCQFRSVEAVQEITEYAKSIPGFVNLDLNDQVTLLKYGVHEIIYTMLASLMNKDGVLISEGQGFMTREFLKSLRKPFGDFMEPKFEFAVKFNALELDDSDLAIFIAVIILSGDRPGLLNVKPIEDIQDNLLQALELQLKLNHPESSQLFAKLLQKMTDLRQIVTEHVQLLQVIKKTETDMSLHPLLQEIYKDLY | 111000 nM |  | 
PPARγ LBD (protein) PESADLRALAKHLYDSYIKSFPLTKAKARAILTGKTTDKSPFRIYDMNSLMMGEDKIKFKHITPLQEQSKEVAIRIFQGCQFRSVEAVQEITEYAKSIPGFVNLDLNDQVTLLKYGVHEIIYTMLASLMNKDGVLISEGQGFMTREFLKSLRKPFGDFMEPKFEFAVKFNALELDDSDLAIFIAVIILSGDRPGLLNVKPIEDIQDNLLQALELQLKLNHPESSQLFAKLLQKMTDLRQIVTEHVQLLQVIKKTETDMSLHPLLQEIYKDLY | 810 nM |  | 

The remaining binders from weak to strong by Kd (SIRT1 NTD(3HB)-CD), led by results:

Kd (SIRT1 NTD(3HB)-CD) | Kd (SIRT1 NTD(3HB)) | Kd (SIRT1 CD) | Binder
560 nM |  |  | PPARγ LBD (protein) PESADLRALAKHLYDSYIKSFPLTKAKARAILTGQTTDKSPFVIYDMNSLMMGEDKIKFKHITPLQEQSKEVAIRIFQGCQFRSVEAVQEITEYAKSIPGFVNLDLNDQVTLLKYGVHEIIYTMLASLMNKDGVLISEGQGFMTREFLKSLRKPFGDFMEPKFEFAVKFNALELDDSDLAIFIAVIILSGDRPGLLNVKPIEDIQDNLLQALELQLKLNHPESSQLFAKLLQKMTDLRQIVTEHVQLLQVIKKTETDMSLHPLLQEIYKDLY
210 nM |  |  | PPARγ LBD (protein) PESADLRALAKHLYDSYIKSFPLTKAKARAILTGKTTDKSPFVIYDMNSLMMGEDKIKFQHITPLQEQSKEVAIRIFQGCQFRSVEAVQEITEYAKSIPGFVNLDLNDQVTLLKYGVHEIIYTMLASLMNKDGVLISEGQGFMTREFLKSLRKPFGDFMEPKFEFAVKFNALELDDSDLAIFIAVIILSGDRPGLLNVKPIEDIQDNLLQALELQLKLNHPESSQLFAKLLQKMTDLRQIVTEHVQLLQVIKKTETDMSLHPLLQEIYKDLY
170 nM |  |  | PPARγ LBD (protein) PESADLRALAKHLYDSYIKSFPLTKAKARAIRTGKTTDKSPFVIYDMNSLMMGEDKIKFKHITPLQEQSKEVAIRIFQGCQFRSVEAVQEITEYAKSIPGFVNLDLNDQVTLLKYGVHEIIYTMLASLMNKDGVLISEGQGFMTREFLKSLRKPFGDFMEPKFEFAVKFNALELDDSDLAIFIAVIILSGDRPGLLNVKPIEDIQDNLLQALELQLKLNHPESSQLFAKLLQKMTDLRQIVTEHVQLLQVIKKTETDMSLHPLLQEIYKDLY
